Results on two variants are retold here after IntAct's records for PubMed 38890443.

The chains are these.
B1: E3 ubiquitin-protein ligase RNF26 (Homo sapiens), Q9BY78 (parent)
chain: MEAVYLVVNGLGLVLDVLTLVLDLNFLLVSSLLASLAWLLAFVYNLPHTVLTSLLHLGRGVLLSLLALIEAVVRFTCGGLQALCTLLYSCCSGLESLKLLGHLASHGALRSREILHRGVLNVVSSGHALLRQACDICAIAMSLVAYVINSLVNICLIGTQNLFSLVLALWDAVTGPLWRMTDVVAAFLAHISSSAVAMAILLWTPCQLALELLASAARLLASFVLVNLTGLVLLACVLAVTVTVLHPDFTLRLATQALSQLHARPSYHRLREDVMRLSRLALGSEAWRRVWSRSLQLASWPNRGGAPGAPQGDPMRVFSVRTRRQDTLPEAGRRSEAEEEEARTIRVTPVRGRERLNEEEPPGGQDPWKLLKEQEERKKCVICQDQSKTVLLLPCRHLCLCQACTEILMRHPVYHRNCPLCRRGILQTLNVYL
partner: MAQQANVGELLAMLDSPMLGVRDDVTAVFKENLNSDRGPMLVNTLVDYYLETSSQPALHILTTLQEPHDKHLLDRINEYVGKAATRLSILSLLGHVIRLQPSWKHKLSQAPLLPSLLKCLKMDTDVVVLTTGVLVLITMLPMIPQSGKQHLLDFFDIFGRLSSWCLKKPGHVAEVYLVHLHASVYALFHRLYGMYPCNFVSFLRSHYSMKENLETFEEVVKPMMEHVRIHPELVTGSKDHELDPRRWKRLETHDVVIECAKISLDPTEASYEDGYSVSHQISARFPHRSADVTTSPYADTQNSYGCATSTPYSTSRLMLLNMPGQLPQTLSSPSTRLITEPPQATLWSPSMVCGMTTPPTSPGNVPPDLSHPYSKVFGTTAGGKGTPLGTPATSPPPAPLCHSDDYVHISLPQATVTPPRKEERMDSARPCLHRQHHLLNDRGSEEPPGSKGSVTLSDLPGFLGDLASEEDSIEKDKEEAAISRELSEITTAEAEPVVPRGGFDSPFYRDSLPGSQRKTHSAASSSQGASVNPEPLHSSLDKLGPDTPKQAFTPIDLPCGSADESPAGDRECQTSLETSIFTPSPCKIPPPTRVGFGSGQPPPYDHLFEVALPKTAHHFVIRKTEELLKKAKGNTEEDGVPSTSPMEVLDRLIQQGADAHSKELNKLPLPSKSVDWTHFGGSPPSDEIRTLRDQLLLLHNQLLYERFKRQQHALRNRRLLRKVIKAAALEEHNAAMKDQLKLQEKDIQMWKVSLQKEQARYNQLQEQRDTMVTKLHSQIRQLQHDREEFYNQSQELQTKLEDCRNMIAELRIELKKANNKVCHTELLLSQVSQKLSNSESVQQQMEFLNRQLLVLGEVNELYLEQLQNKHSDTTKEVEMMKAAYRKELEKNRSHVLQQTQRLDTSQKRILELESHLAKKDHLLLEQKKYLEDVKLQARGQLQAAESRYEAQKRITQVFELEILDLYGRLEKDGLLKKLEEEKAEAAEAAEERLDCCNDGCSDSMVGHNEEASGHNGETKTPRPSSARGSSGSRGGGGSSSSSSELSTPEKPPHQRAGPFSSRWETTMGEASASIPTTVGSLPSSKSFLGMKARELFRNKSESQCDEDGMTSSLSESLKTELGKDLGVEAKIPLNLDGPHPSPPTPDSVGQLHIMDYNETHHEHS

In the first experiment the parent is B1. The note with it: with tsc1_human TSC1, Q92574.
With T348A, the “effect of a mutation on the interaction” value is “decreasing interaction”.

Another experiment covers variants of B1. The following applies: with tsc1_human TSC1, Q92574. This is another data set of the same source.
With T348D, the “effect of a mutation on the interaction” value is given as “increasing interaction”.
